Measurements as given in patent US20190153096A1 (COVAGEN, published 2019).

Target: T1, Human C1q (EMD Millipore) (human, UniProt P02745 23-245; P02746 28-253; P02747 29-245)
T1 construct: Bought protein; the three subunits are added from general knowledge
Experiment: SPR (BIAcore), antibody immobilised on the chip, human C1q injected at 3.125-200 nM
Method: Antibodies were coated onto a CMS chip via amine coupling at coating density of 5000 RU Human C1q (EMD Millipore) was injected in running buffer (PBS pH7.4, 0.05% TWEEN-20) at 200 nM and three-fold serial dilutions thereof at a flow rate of 30 μl/min. Binding was recorded, and KD was determined by curve fitting using the BIAcore software using a steady-state affinity model.

T1 sequence (P02745 23-245 limits assumed, chain 1 of 3): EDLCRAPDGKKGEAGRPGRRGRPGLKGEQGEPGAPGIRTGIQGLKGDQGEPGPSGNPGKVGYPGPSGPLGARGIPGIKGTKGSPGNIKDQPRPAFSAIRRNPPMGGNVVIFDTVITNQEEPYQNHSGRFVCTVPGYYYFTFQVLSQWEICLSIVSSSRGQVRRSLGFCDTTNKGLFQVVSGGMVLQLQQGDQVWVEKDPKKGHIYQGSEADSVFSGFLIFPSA
T1 sequence (P02746 28-253 limits assumed, chain 2 of 3): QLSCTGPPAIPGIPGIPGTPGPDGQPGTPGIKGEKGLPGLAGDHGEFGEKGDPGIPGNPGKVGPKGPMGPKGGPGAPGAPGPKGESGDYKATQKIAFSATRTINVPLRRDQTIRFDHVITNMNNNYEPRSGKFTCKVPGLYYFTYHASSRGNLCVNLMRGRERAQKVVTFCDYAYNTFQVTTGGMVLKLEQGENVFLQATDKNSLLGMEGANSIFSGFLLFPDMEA
T1 sequence (P02747 29-245 limits assumed, chain 3 of 3): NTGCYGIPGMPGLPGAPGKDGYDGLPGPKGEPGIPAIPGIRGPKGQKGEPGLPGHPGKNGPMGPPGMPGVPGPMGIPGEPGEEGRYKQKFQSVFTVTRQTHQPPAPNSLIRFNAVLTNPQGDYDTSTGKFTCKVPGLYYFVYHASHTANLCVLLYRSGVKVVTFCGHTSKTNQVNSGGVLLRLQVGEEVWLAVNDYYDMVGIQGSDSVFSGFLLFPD

B1: mAb1 DANAPA IgG1 (antibody)
heavy: QVQLQQSGAELARPGASVKMSCKASGYTFTRSTMHWVKQRPGQGLEWIGYINPSSAYTNYNQKFKDKATLTADKSSSTAYMQLSSLTSEDSAVYYCASPQVHYDYNGFPYWGQGTLVTVSAASTKGPSVFPLAPSSKSTSGGTAALGCLVKDYFPEPVTVSWNSGALTSGVHTFPAVLQSSGLYSLSSVVTVPSSSLGTQTYICNVNHKPSNTKVDKKVEPKSCDKTHTCPPCPAPELLGGPSVFLFPPKPKDTLMISRTPEVTCVVVAVSHEDPEVKFNWYVDGVEVHNAKTKPREEQYASTYRVVSVLTVLHQDWLNGKEYKCKVSNKALAAPIEKTISKAKGQPREPQVYTLPPSREEMTKNQVSLTCLVKGFYPSDIAVEWESNGQPENNYKTTPPVLDSDGSFFLYSKLTVDKSRWQQGNVFSCSVMHEALHNHYTQKSLSLSPGK
light: QVVLTQSPAIMSAFPGEKVTMTCSASSSVSYMNWYQQKSGTSPKRWIYDSSKLASGVPARFSGSGSGTSYSLTISSMETEDAATYYCQQWSRNPPTFGGGTKLQITRTVAAPSVFIFPPSDEQLKSGTASVVCLLNNFYPREAKVQWKVDNALQSGNSQESVTEQDSKDSTYSLSSTLTLSKADYEKHKVYACEVTHQGLSSPVTKSFNRGEC
notes: mAb1 with D265A, N297A, P329A (EU); also called DANAPA Fc mutated mAb1
  binding result: no binding (tested: 200 nM)
